Experimental data from article PMC10015101.

What was measured:
Test in all cases: SEC
[1] = biological target: BM48-31 soluble spike ectodomain, stabilised (2P, GSAS linker, T4 fibritin trimerization motif) (bat sarbecovirus BM48-31 | bacteriophage T4)
[2] = biological target: BtKY72 soluble spike ectodomain, stabilised (2P, GSAS linker, T4 fibritin trimerization motif) (bat sarbecovirus BtKY72 | bacteriophage T4)
[3] = biological target: Pang17 soluble spike ectodomain, stabilised (2P, GSAS linker, T4 fibritin trimerization motif) (pangolin sarbecovirus pang17 | bacteriophage T4)
[4] = biological target: RaTG13 soluble spike ectodomain, stabilised (2P, GSAS linker, T4 fibritin trimerization motif) (bat sarbecovirus RaTG13 | bacteriophage T4)
[5] = biological target: RmYN02 soluble spike ectodomain, stabilised (2P, GSAS linker, T4 fibritin trimerization motif) (bat sarbecovirus RmYN02 | bacteriophage T4)
[6] = biological target: Rs4081 soluble spike ectodomain, stabilised (2P, GSAS linker, T4 fibritin trimerization motif) (bat sarbecovirus RS4081 | bacteriophage T4)
[7] = biological target: RsSHC014 soluble spike ectodomain, stabilised (2P, GSAS linker, T4 fibritin trimerization motif) (bat sarbecovirus RsSHC014 | bacteriophage T4) (UniProt U5WLK5)
[8] = biological target: WIV1 soluble spike ectodomain, stabilised (2P, GSAS linker, T4 fibritin trimerization motif) (bat sarbecovirus WIV1 | bacteriophage T4) (UniProt U5WI05)
[9] = biological target: Yun11 soluble spike ectodomain, stabilised (2P, GSAS linker, T4 fibritin trimerization motif) (sarbecovirus Yun11 | bacteriophage T4)

“BM48-31 soluble spike ectodomain, stabilised (2P, GSAS linker, T4 fibritin trimerization motif) (domain or fragment)” was tested, and the stoichiometry N [1] was 3.
“BtKY72 soluble spike ectodomain, stabilised (2P, GSAS linker, T4 fibritin trimerization motif) (domain or fragment)” was tested, and the stoichiometry N [2] was 3.
With “Pang17 soluble spike ectodomain, stabilised (2P, GSAS linker, T4 fibritin trimerization motif) (domain or fragment)” the stoichiometry N [3] was 3.
Substance “RaTG13 soluble spike ectodomain, stabilised (2P, GSAS linker, T4 fibritin trimerization motif) (domain or fragment)” has a stoichiometry N [4] of 3.
With “RmYN02 soluble spike ectodomain, stabilised (2P, GSAS linker, T4 fibritin trimerization motif) (domain or fragment)” the stoichiometry N [5] was 3.
Work on “Rs4081 soluble spike ectodomain, stabilised (2P, GSAS linker, T4 fibritin trimerization motif) (domain or fragment)” yielded a stoichiometry N [6] of 3.
“RsSHC014 soluble spike ectodomain, stabilised (2P, GSAS linker, T4 fibritin trimerization motif) (from UniProt U5WLK5 1-1191) (domain or fragment)” showed a stoichiometry N [7] of 3.
For “WIV1 soluble spike ectodomain, stabilised (2P, GSAS linker, T4 fibritin trimerization motif) (from UniProt U5WI05 1-1191) (domain or fragment)”, the stoichiometry N [8] was 3.
Substance “Yun11 soluble spike ectodomain, stabilised (2P, GSAS linker, T4 fibritin trimerization motif) (domain or fragment)” has a stoichiometry N [9] of 3.
